Experimental data published in patent publication US20170129940A1.

Columns and labels:
Conditions in all cases: remark: other sources report otherwise
[1] = target: T1, hCMV gH + gL + UL128 + UL130 + UL131A (co-expressed in HEK293T cells) (human cytomegalovirus), P12824; test: competitor: 2F4-biotin; cell staining
[2] = target: T1, hCMV gH + gL + UL128 + UL130 + UL131A …; test: competitor: 5A2-biotin; cell staining
[3] = target: T1, hCMV gH + gL + UL128 + UL130 + UL131A …; test: competitor: 6G4-biotin; cell staining
[4] = target: T1, hCMV gH + gL + UL128 + UL130 + UL131A …; test: competitor: 9I6-biotin; cell staining
[5] = target: T1, hCMV gH + gL + UL128 + UL130 + UL131A …; test: competitor: 10F7-biotin; cell staining
[6] = target: T1, hCMV gH + gL + UL128 + UL130 + UL131A …; test: competitor: 15D8-biotin; cell staining
[7] = target: T1, hCMV gH + gL + UL128 + UL130 + UL131A …; test: competitor: 1F11-biotin; cell staining
[8] = target: T1, hCMV gH + gL + UL128 + UL130 + UL131A …; test: competitor: 4I22-biotin; cell staining
[9] = target: T1, hCMV gH + gL + UL128 + UL130 + UL131A …; test: competitor: 4N10-biotin; cell staining
[10] = target: T1, hCMV gH + gL + UL128 + UL130 + UL131A …; test: competitor: 2C12-biotin; cell staining
[11] = target: T1, hCMV gH + gL + UL128 + UL130 + UL131A …; test: competitor: 8C15-biotin; cell staining
[12] = target: T1, hCMV gH + gL + UL128 + UL130 + UL131A …; test: competitor: 8I21-biotin; cell staining
[13] = target: T1, hCMV gH + gL + UL128 + UL130 + UL131A …; test: competitor: 8J16-biotin; cell staining

| Binder | Inhibition of binding (%) [1] | Inhibition of binding (%) [2] | Inhibition of binding (%) [3] | Inhibition of binding (%) [4] | Inhibition of binding (%) [5] | Inhibition of binding (%) [6] | Inhibition of binding (%) [7] | Inhibition of binding (%) [8] | Inhibition of binding (%) [9] | Inhibition of binding (%) [10] | Inhibition of binding (%) [11] | Inhibition of binding (%) [12] | Inhibition of binding (%) [13] |
| --- | --- | --- | --- | --- | --- | --- | --- | --- | --- | --- | --- | --- | --- |
| 2C12 (antibody, V domains shown) VH: QITLRESGPTLVKPTQTLTLTCTFSGFSLNTNGVGVGWIRQPPGKALEWLALIYWNGNEGYSPSLKSRLTITKDTSKNQVVLTMTNMDPVDTATYYCVHWPQGLTTVTRLAFDIWGQGTMVTVSS VL: QSALTQPRSVSGSPGQSVTISCTGTTSDVGRYNFVSWYQQHPGKAPKLLMYDVSQRPSGVPSRFSGSKSGNTASLTISGLQAEDEAVFYCCSYAGGNFFSYVFGTGTKVTVL | 0% | 0% | 100% | 100% | 0% | 0% | 0% | 0% | 0% | 100% | 100% | 0% | 100% |
| 9I6 (antibody, V domains shown) VH: EVQLVQSGAEVKKPGESLKISCRESGDTFPAYWIAWVRQMPGKGLEWMGIIYPIDSETTYSPSFQGQVTISADKSINTAYLQWSSLKASDSAIYYCARGTSTGLREAFHIWGQGTMVTVSS VL: DVVMTQSPLSLAVTLGQPAYISCRSSQSLGYSDGNTYLNWFQQRPGQSPRRLIYEVSNRDSGVPDRFSGSGSGTDFTLKISRVEAEDVGTYYCMQGTHWPPMCSFGQGTKLEIK | 0% | – | 100% | 100% | – | – | 0% | 0% | – | 100% | 100% | 0% | 100% |
